These results are taken from patent publication US20250264455A1 (HELMHOLTZ ZENTRUM M NCHEN DEUTSCHES FORSCHUNGSZENTRUM F R …, published 2025).

One data set deals with T1, LifeAct-emFPv4.
T1 construct: also called emFPv4 hub
In words: Clear Native PAGE of co-expressing HEK293T lysate.

Data set [1] concerns the molecule itself. In words: native 12% Tris-Glycine gel of purified protein with BODIPY FL C16.
Data set [2] deals with T2, QtEnc-SpyTag(003) (Bacillus thermotolerans (Quasibacillus …, UniProt A0A0F5HPP7 1-282)).
T2 construct: Q. thermotolerans encapsulin shell monomer with C-terminal SpyTag003; T=4 shell of 240 subunits; expressed in HEK cells; also called QtEnc decorated with SpyTags
Nature of the data set: TEM and CN-PAGE after co-expression in HEK cells (SpyTag003/SpyCatcher003 isopeptide).

The target in data set [3] is T2, QtEnc-SpyTag(003). In words: TEM, CN-PAGE shift and Western blot after co-expression in HEK cells (SpyTag003/SpyCatcher003 isopeptide).

B1: BFabp-αMoon-Tag (other)
chain: MEVQLVESGGGLVQPGGSLRLSCAASGSISSVDVMSWYRQAPGKQRELVAFITDRGRTNYKVSVKGRFTISRDNSKNMVYLQMNSLKPEDTADYLCRAESRTSWSSPSPLDVWGRGTQVTVSSGGTGGSVEAFCATWKLTNSQNFDEYMKALGVGFATRQVGNVTKPTVIISQEGDKVVIRTLSTFKNTEISFQLGEEFDETTADDRNCKSVVSLDGDKLVHIQKWDGKETNFVREIKDGKMVMTLTFGDVVAVRHYEKA
notes: also called B-Fabp Anti-Moon-Tag
As to B1, the binding result in the data set with LifeAct-emFPv4 was “binds”.

B2: BFabp-FLAG (other)
chain: VEAFCATWKLTNSQNFDEYMKALGVGFATRQVGNVTKPTVIISQEGDKVVIRTLSTFKNTEISFQLGEEFDETTADDRNCKSVVSLDGDKLVHIQKWDGKETNFVREIKDGKMVMTLTFGDVVAVRHYEKAGSGDYKDDDDK
notes: Purified over the FLAG tag
Turning to B2, the binding result in data set [1] is on record as “binds”.

B3: BM3h-SpyCatcher003 (other)
chain: MTIKEMPQPKTFGELKNLPLLNTDKPVQALMKIADELGEIFKFEAPGRVTRYLSSQRLIKEACDESRFDKNLSQALKFVRDFAGDGLFTSWTHEKNWKKAHNILLPSFSQQAMKGYHAMMVDIAVQLVQKWERLNADEHIEVPEDMTRLTLDTIGLCGFNYRFNSFYRDQPHPFITSMVRALDEAMNKLQRANPDDPAYDENKRQFQEDIKVMNDLVDKIIADRKASGEQSDDLLTHMLNGKDPETGEPLDDENIRYQIITFLIAGHETTSGLLSFALYFLVKNPHVLQKAAEEAARVLVDPVPSYKQVKQLKYVGMVLNEALRLWPTAPAFSLYAKEDTVLGGEYPLEKGDELMVLIPQLHRDKTIWGDDVEEFRPERFENPSAIPQHAFKPFGNGQRACIGQQFALHEATLVLGMMLKHFDFEDHTNYELDIKETLTLKPEGFVVKAKSKKIPLPPPPRTGPPPPRVTTLSGLSGEQGPSGDMTTEEDSATHIKFSKRDEDGRELAGATMELRDSSGKTISTWISDGHVKDFYLYPGKYTFVETAAPDGYEVATPIEFTVNEDGQVTVDGEATEGDAHT
notes: Heme domain of cytochrome P450 BM3 fused to SpyCatcher003; also called SpyCatcher-Bm3h
Regarding B3, the binding result with QtEnc-SpyTag(003) [2] is “binds”.

B4: B-FABP-SpyCatcher003 (other)
chain: MVEAFCATWKLTNSQNFDEYMKALGVGFATRQVGNVTKPTVIISQEGDKVVIRTLSTFKNTEISFQLGEEFDETTADDRNCKSVVSLDGDKLVHIQKWDGKETNFVREIKDGKMVMTLTFGDVVAVRHYEKAPPPPRTGPPPPRVTTLSGLSGEQGPSGDMTTEEDSATHIKFSKRDEDGRELAGATMELRDSSGKTISTWISDGHVKDFYLYPGKYTFVETAAPDGYEVATPIEFTVNEDGQVTVDGEATEGDAHT
notes: also called B-FABP fused via SpyCatcher003
For B4, the binding result in the data set with QtEnc-SpyTag(003) [3] was “binds”.
